Measured values from the nanobody polyreactivity screen of Harvey et al. (2022).

assay: yeast display, Sf9 membrane polyspecificity reagent, FACS + sequencing; frameworks hold sequencing errors
Outline: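 In a synthetic yeast display library (Saccharomyces cerevisiae BJ5465), nanobody expression was induced with galactose for 36–48 hours. FACS gates were set low and high (top ~1%) using anti-HA fluorescence for expression and streptavidin fluorescence for binding of the Sf9 membrane reagent. Each polyreactivity label is drawn from the gate of origin.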

Sequence	polyreactivity (PSR sort gate)
QVQLVESGGGLVQAGGSLRLSCAASGFVYYVMGWYRQAPGKERELVAAISKGGGRTYYADSVKGRFTISRDNAKNTVYLQMNSLKPEDTAVYYCNADGGLPKYDYWGQGTQVTVSS	high polyreactivity
QVQLVESGGGLVQAGGSLRLSCAASGSIFSQYAMGWSRQAPGKERELVAAISSSGDSTNYADSVKGRFTISRDNAKNTVYLQMNSLKPEDTAVYYCAADFDWFIWGYDYWGQGTQVTVSS	low polyreactivity
QVQLVESVGGLVQAGGSLRLSCAASGRTFYGYAMGWYRKAPGKERELVAAISTGGGRTYYADSVKGRFTISRDNAKNTVYLQMNSLKPEDTAVYYCAARRAYPHYRVDYWGQGTQVTVSS	high polyreactivity
QVQLVESGGGLVQAGGSLRLSCADSGLTFWVYAMGWYRQAPGKERELVAAISSGGSTNYADSVKGRFTISRDNAKNTVYVQMNSLKPEDTAVYYCAAEWVYWQDELWDSPGLVEFDYWGQGTQVTVSS	low polyreactivity
QVQLVESCVGLVQAGGSLRLSCAASRSTFDSYAMGWYRQAPGNEREMVASITSRGGRTYYADSVKGRFSISRDNAMNTVYLEMNSLKPEDTAVYYCNAYRRKYYYYQRHGFWGQGTQVTVSS	high polyreactivity
QVQLVESGGGLVQAGGSLRLSCAASGNTFVRNAMGWYRQAPGKERELVAAMSSRGTSTYYADSVKGRFTISRDNAKNTVYLQMNSLKPEDTAVYYCAAYQYPADFKLYYYWGQGTQVTVSS	high polyreactivity
QVQLVESGGGLVQAGGSLRLSCAASGYTFRNNAMGWYRQAPGKEREFVAAISRSGARTYYADSVKGRFTISRDNAKNTVYLQMNSLKPEDTAVYYCAARESFEYDSWGQGTQVTVSS	high polyreactivity
QVQLVESGGGLVQAGGTLRLSCAATGRILHIYAMGWYRQAPGKERELVAVISTGGGDTYYADSVKGRFTISRDNANNTVYLQMNSRKPEDTAVYYCAADGYWAGYGYDYWGQGTQVTVSS	high polyreactivity
QVQLVESGGGLVQAGGSLRLSCAASGSTFDYYAMGWYRQAPGKERELVAVISSSGGSTYYADSVKGRFTISRDNAKNTVYLQMNSLKPEDTAVYYCAALYRNYGSSYAYYYWGQGTQVTVSS	low polyreactivity
QVQLQESGGVLVQAGGDLRLSCAASGNIFRDYIMGWYRQAPGQERDFVAGIDRGANTNYADSVKGRFTISRDNAKNTVYLQMNSLKPEDTAVYYCAVHTAIVPDFIYWGQGTQVTVSS	low polyreactivity
QVQLVDSGGRLVQAGGSLRLSCAASGFIFGTNAMGWYRQAPGKERELVASISSTGGSTYYADSVKGRCTISRDNAKNTVYLQMNILKPEETAVYYCAADPYPEYIRYLPGVDYSGQGTQVTVSS	low polyreactivity
QVHLVESGGGLVQAGGSLRLSCAASGSNFDINAMGWYRQAPGKERELVAVITDSGSTYYADSVKGRFTISRDNAKNTVYLQMNRLKPEDTAVYYSAADQVVAGLLTPEYDYWGQGTQVTVSS	low polyreactivity
QVQLVESGGGLVQAGGSLRLSCAASGSIFNRNAMGWYRQAPGKERELVASINYSGGSTYYADSVKGRFTISRDNAKNTVYLQMNSLKPEDTAVYYCAADGKTYYRGGGPYYIYYRYDYWGQGTQVTVSS	low polyreactivity
QVQLVESGGGLVQAGGSLRLSCAASGRIFKTYAMGWYRQAPGKERELVAAITSGGSTYYADSVKGRFTISRDNAKNTVYLQMNSLKPEDTAVYYCNRVYRYVYSWAYNYWGQGTQVTVSS	high polyreactivity
QVQLVESGGGLDQAGGSLRLSCDASGSSFRKYAMVLYRQAPGKEREFVAAISSSGGRTYYADSVKGRFTISRDNAKYTVYLQMNSLKPEDTSVYYFADDVYSDRYDYWGQGTQVTVSS	high polyreactivity
QVQLVESGGCLVQAGGSLRLSSAASGFTFRRYTMGWYRQAPGKVRELVAAISRSGGSTFYADSVKGRFTISRDNAKNTVYLQLNSLKPEDSAVYYCNAGRTYTALNGDYWGHGTQVTVSS	high polyreactivity
QVQLVESGGGLVQAGGSLRLSCAASGFIFSWNAMGWYRQAPGKERELVAGISWSGGSTYYADSVKGRFTISRDNAKNTVYLQMNSLKPEDTAVYYCAKEPSVGTGGVYRYGRGDYWGQGTQVTVSS	low polyreactivity
QVQLVESGGGLVQAGGSLRLSCAASGRTFRYNTMGWYRQAPGKERELVAALTYRGGRTYYADSVKGRFTISRDHAKNTVYLQMNSLKPEDTAVYYCARDYYGSVRFDHWGQGTQVTVSS	high polyreactivity
QVQLVESGGALVQEAGSLRLRCAASGSIFDYKGMRWSRPAPGKERELVAAITSSGGSTYYADSVKGRFSISRDNAKNTDYLQMNSLIPEVSAFYYCAVDILYFPASYATQPVDYWGQGTQVTVSS	low polyreactivity
QVQLVESGGGLVQAGGRLRLSCAASGNTLRGYAMGWYRPAPGKERELVSAISYSSVNTYYADSVKGRFTISRDNAKNTVYLQMNSLKPEDTAVYYCAADYYYYRRTQYDLRGYPYYYWGQGTQVTVSS	low polyreactivity

Sequence	polyreactivity (PSR sort gate)
QVQLVESGGGLVQAGGSLRLSCAASGFIFEAYAMGWYRQAPGKERELVAAIDSGGSTDYADSVKGRFTISRDNAKNTVYLQMNSLTPEDTAVYYCIAERAYLLWYNFDYWGQGTKVTVSS	low polyreactivity
QVQLVESGGGLVQAGGSLRLSCAASGSTFDYYAMGWYRQAPGKERELVATISYSDGTTYYADSVKGRFTISRDNAKNTVYLQMNSLKPEDTAVYYCAADTYVYEEQNVWRMDYWGQGTQVTVSS	low polyreactivity
QVQLVESGGGLVQAGGSLRLSCAASGGIFYTYAMGWYRQAPGKERELVAAISSSGGSTYYADSVKGRFTISRDNAKNTVYLQMNSLKPEDTAVYYCAKDSSTGAGARRRYGYWGQGTQVTVSS	low polyreactivity
QVQLVESGGGLVQAGGSLRLSCAASGYIFKYYAMGWYIQAPGKERELVASITSGGRTNYADSVKGRFTISRDNAKNTVYLQMNSLKPEDTAVYYCAATSKYQQDPRRYDYWGHGTQVTVSS	high polyreactivity
QVQLVESGGGLVQAGGSLRLSCAASGRIFDSNAMGWYRQAPGKERELVAAITYSGGGTFYADSVKGRFTISRDNAKNTVYLQMNRLKPEDTAVYYCNAGYFTEYNSWGQGTQVTVSS	high polyreactivity
QVQLVESGGGLVQAGGSLRLSCAASGRTIGVYAMGWYRQAPGKERELVAAISWSGGTTYYADSVKGRFTISRDNAKNTVYLQMNSLKPEDTAVYYCAADSYTEVEYWGQGTQVTVSS	low polyreactivity
QVQLVESGGGLVQAGGSLRLSCAASGSTFQLYAMGWYRQAPGKERELVAAISGIGDSTYYADSVKGRFTISRDNAKNTVYLQMNSLKPEDTAVYYCAREFSDGLSGKFDYWGHGTQVTVSS	low polyreactivity
QVQLVESGGGLVQAGGSLRLSCAASGFTLARYAMGWYRQAPGKERELVAGITGGGSTYYADSVKGRFTISRDNAKNTVYLQMNSVKPEDTAVYYCNARTYWKSRLKQYNYWGQVTQVTVSS	high polyreactivity
QVQLVESGGGLVQAGGSLRLSCAASGFIFYRYAMGWYRQAPGKERELVAAISKSGSSTYYADSVKGRFTISRDNAKNTVYLQMNSLKPEDTAVYYCARDRQSRSLLEYDYWGQGTQVTVSS	low polyreactivity
QVQLVESGVGLVQAGGSLRLSCAASGLTFGWYAMGWYRQAPGKERELVASITRRSGSTYYADSVKGRFTISRDNAKNTVYLQMNSLKPEDTAVYYCAARSRGTTRFDFWGQGTQVTVSW	high polyreactivity
QVQLVESGGGLVQAGGSLRLSCAASGSILGWYAMGWYRQAPGKERQLVAAISYSGTSTYYADSVKGRFTISRDNAKNPVYLQMNSLNPEDTAVYYCNAFFSSRYYRVGSGYDYWGQGTQVTVSS	high polyreactivity
QVQLVESGGGLVQAGGSLRLSCAASGSTFTVYAMGWYRQAPGKERELVAAITNGGRTYYADSVKGRFTISRDNAKNTVYLQMNSLKPEDTAVYYCAADVYYDDYLYDYWGQGTQVTVSS	high polyreactivity
QDQLVESGGGLVQAGGSLRLSCSASGRIFYYYTMGWYRQEPGKERELVAAISSGGSTNYADSVKGRFTISRDNAKNTVYLQMNSLKPEDTAVYYCNVELTTVGHWYYYRPGYDYWVQGTQVTVSS	low polyreactivity
QVQLVESGGGLVQAGGSLRLSCAASGFAFSHYAMGWYRQAPGKERELVAAISWGGGSTYYADSVKGRFTISRDNAKNTVYLQMNSLRPEDTAVYYCAASIWLRYHWGYDYWGQGTQVTVSS	high polyreactivity
QVQLVESGGGLVQAGGSLRLSCAASGFTIYYYTMGWYRQAHGKERELVAAITWRGGSTNYADSVKGRFTISRDNAKNTVYLQMNSLKPEDTAVYYCAAVTYWFWPGMDYWGQGTQVTVSS	low polyreactivity
QVQLVESGGGIVQAGGSLRLSCAASGRIFVLNAMGWYRQAPGKERELVAAISKSAGSTYYADSVKGRFTISRDNAKNTVYLQMNSLKPEDTAVYYCNVGRRGHYLDAYDYWGQGTQVTVSS	high polyreactivity
QVQLVESGGGLVQAGGSLSLSCAASGSIFWYYAMGWYRPAPGKERELVATIDVSAGSTYADSVKGRFTIARDNAKNTVYLQMNSLKPEDTAVYDCNADHYPGEVFYVSSTRYEREYWGQGTQVTVSS	low polyreactivity
QVQLVESGGGLVQAGGSLRLSCAASGFTFRWYAMGWYRQAPGKERELVAAISTTGGSTYYADSVKGRFTISRDNAKNTVYFQLNSLKPEDTAVYYCNVYSGRYWESHKFDSWGQGTQVTVSS	high polyreactivity
QFQLVESGGGLVQAGGSLRLSCAASGRTFWNYAMGWYRQAPGKERELVAAISVTGTNTYYADSVKGRFTISRDNAKNTVYLQMNSLKPEDTAVYYCAARGRPGLYYWGQGTQVTVSS	high polyreactivity
QVQLVESGGGLVQAGGSLRLSCAASGITIPYNAMGWYRQAPGKERELVAVISWSGGSTYYADSVKGRFTISRDNAKNTVYLQMNRQKPEDTAFYYCAAEPGGGYYYWGQGTKVTVSS	low polyreactivity
